Assay results from patent US20230277625A1 (SIMCHA IL 18, published 2023).

What was measured:
[1] = target: T1, Human IL-18BP (amino acids 31-194), biotinylated (human, UniProt O95998 31-194, biotin on the AviTag (BirA ligase) where used biotinylated); assay: on-yeast binding isotherms; 20 µM used for NBD; printed without '>'; yeast-displayed variant; ratio computed with 20 µM put in for NBD
T1 construct: Soluble decoy receptor; also called hIL-18BP; recombinant IL-18BP
T1 sequence: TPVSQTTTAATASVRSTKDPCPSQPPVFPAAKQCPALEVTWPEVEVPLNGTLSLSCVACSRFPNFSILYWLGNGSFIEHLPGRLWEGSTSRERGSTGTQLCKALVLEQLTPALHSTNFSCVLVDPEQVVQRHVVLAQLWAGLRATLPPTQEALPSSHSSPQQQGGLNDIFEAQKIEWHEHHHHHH

[2] = target: T2, Human IL-18Rα ectodomain (amino acids 19-329), biotinylated (human, UniProt Q13478 19-329, biotin on the AviTag (BirA ligase)); assay: SPR, apparent KD, first value of the cell
T2 construct: range 19-329; Secreted from insect cells (gp67 signal peptide removed); also called hIL-18Rα; hIL18Rα
T2 sequence: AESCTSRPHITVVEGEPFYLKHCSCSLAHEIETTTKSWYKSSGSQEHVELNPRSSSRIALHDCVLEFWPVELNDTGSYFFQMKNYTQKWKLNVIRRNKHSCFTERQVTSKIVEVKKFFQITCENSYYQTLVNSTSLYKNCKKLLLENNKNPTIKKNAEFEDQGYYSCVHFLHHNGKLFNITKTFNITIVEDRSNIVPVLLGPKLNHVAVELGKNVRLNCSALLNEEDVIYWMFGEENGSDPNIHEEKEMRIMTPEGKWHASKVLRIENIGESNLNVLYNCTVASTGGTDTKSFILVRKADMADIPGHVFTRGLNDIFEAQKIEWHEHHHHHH
Experimental: (§1) Surface Plasmon Resonance (SPR) was used to perform biophysical affinity measurements of second generation DR-IL-18 variants (binding to IL-18R vs IL-18BP). Experiments were conducted using a Biacore T100 instrument and carried out at 25° C. Biotinylated IL-18Rα or IL-18BP were immobilized onto a Biacore biotin capture chip (Series S CAP sensor chip, GE Healthcare) to yield an Rmax of ˜50 RU (IL-18Rα) or ˜10 RU (IL-18BP). Measurements were made with serial dilutions of the IL-18 variants in HEPES buffered Saline-P+ buffer (10 mM HEPES pH 7.4, 150 mM NaCl, 0.005% surfactant P20). The surface was regenerated by three 60-sec injections of regeneration buffer (3/4 (v/v) 8M guanidine hydrochloride with ¼ (v/v) 1M sodium hydroxide). Experiments were performed in multiple channels simultaneously for increased observations. All data were analyzed with the Biacore T100 evaluation software version 2.0 with a 1:1 Langmuir binding model.

[3] = target: T2, Human IL-18Rα ectodomain (amino acids …); assay: SPR
[4] = target: T1, Human IL-18BP (amino acids 31-194), …; assay: SPR; KD(IL-18BP)/KD(IL-18Rα) normalized to WT IL-18; SPR; ratio from the bound KD BP >10,000 nM
Experimental: as §1

[5] = target: T2, Human IL-18Rα ectodomain (amino acids …); assay: SPR (Biacore T100), hIL-18Rα as surface ligand; Exp 1
Experimental: as §1

[6] = target: T2, Human IL-18Rα ectodomain (amino acids …); assay: SPR (Biacore T100), hIL-18Rα as surface ligand; Exp 2
Experimental: as §1

[7] = target: T2, Human IL-18Rα ectodomain (amino acids …); assay: SPR (Biacore T100), hIL-18Rα as surface ligand, 1:1 Langmuir
Experimental: as §1

[8] = target: T1, Human IL-18BP (amino acids 31-194), …; assay: on-yeast binding isotherms; KD ratio relative to WT IL-18; yeast-displayed variant; ratio normalized to WT, from the 20 µM placeholder
[9] = target: T2, Human IL-18Rα ectodomain (amino acids …); assay: SPR, apparent KD, second value of the cell
Experimental: as §1

[10] = target: T2, Human IL-18Rα ectodomain (amino acids …); assay: on-yeast binding isotherm (flow cytometry), drawn summary table, IL18Rα (KD)
Experimental: Individual colonies of IL-18 yeast were grown overnight at 30° C. in SDCAA liquid media and induced in SGCAA liquid media for 1 day at 20° C. IL-18 display levels on yeast were verified by flow cytometry using an anti-cMyc tag antibody (anti-myc-PE; Cell Signaling Technologies). Receptor staining with biotinylated IL-18Rα (with or without IL-18R β) or biotinylated IL-18BP was performed in PBS supplemented with 0.5% BSA and 2 mM EDTA (PBE) on ice. All analysis was performed on a Sony SA3800 flow cytometer.

Binder	KD ratio IL-18BP/IL-18Rα [1]	Kd [2] [nM]	Kd [3] [nM]	IL-18 BP:Rα Dissociation Constant Ratio [4]	Kd [5] [nM]	Kd [6] [nM]	koff [7] [s⁻¹]	kon [7] [M⁻¹ s⁻¹]	Dissociation Constant Ratio normalized to WT IL-18 [8]	Kd [9] [nM]	Kd [10] [nM]
SEQ ID NO: 87 (second generation human DR-IL-18 variant 6-31) (ligand, Engineered variant; recombinant soluble analyte in SPR and cell assays) YFGKLESKLSVIRNLNDQVLFIDQGNRPLFEDMTDSDCRDNAPRTIFIISKYGDSGARGLAVTISVKCEKISTLSCENKIISFKEMNPPDNIKDTKSDIIFFERDVPGHSGKVQFESSSYEGYFLACEKERDLFKLILKKEDELGDRSIMFTVQNED	> 490	15.2	19.4	> 1.06e+06	19.4	15.2	0.00332	218000	> 7200	19.4	41
SEQ ID NO: 90 (second generation human DR-IL-18 variant 6-27) (ligand, Engineered variant; recombinant soluble analyte in SPR and cell assays) YFGKLESKLSVIRNLNDQVLFIDQGNRPLFEDMTDSDCRDNAPRTIFIISKYSDSRARGLAVTISVKCEKISTLSCENKIISFKEMNPPDNIKDTKSDIIFFARSVPGHGRKTQFESSSYEGYFLACEKERDLFKLILKKEDELGDRSIMFTVQNED	> 480	3.9	3.5	> 5.86e+06	3.48	3.85	0.00243	631000	> 7000	3.5	42
